What was measured:
[1] = molecular target: T1, recombinant human ATX beta isoform with N-terminal purification tag (human, UniProt Q13822 49-863); assay: Fab-His ELISA
Procedure: (§1) Fabs were captured on black MaxiSorp plates (Nunc, Cat. No. 437111) coated with 1 μg/ml sheep anti-human Fd (CH1) antibody (The Binding Site, Cat. No. PC075). Plates were washed and biotinylated human ATX was added to the captured Fabs at 5 nM. Incubation was carried out for 1 hour at room temperature with gentle shaking. Plates were washed, SA-HRP (Invitrogen, Cat. No. 43-4323) was added and chemiluminescent detection carried out.
(§2) Clones with binding above background were sequenced and unique clones identified. […] These clones were identified with binding signal to human ATX at least 6-fold above the background. Table 3 lists the identifier for VH and VL (Peptide ID) and the combination of both (Fab ID) sorted by the Fab ELISA binding data.

[2] = molecular target: T1, recombinant human ATX beta isoform with …; assay: ELISA, Fab-His captured by anti-Fd, 5 nM biotinylated human ATX beta
Procedure: as §1, §2

B1: Fab F17 (VH H11, VL L14) (Fab, V domains shown)
VH: EVQLVQSGAEVKKPGESLKISCKGSGYSFTSYWIGWVRQMPGKGLEWMGIIYPGDSDTRYSPSFQGQVTISADKSISTAYLQWSSLKASDTAMYYCARPYGTFDYWGQGTLVTVSS
VL: EIVLTQSPATLSLSPGERATLSCRASQSVADSLAWYQQKPGQAPRLLIYKASNRATGIPARFSGSGSGTDFTLTISSLEPEDFAVYYCQQSNGWPRTFGQGTKVEIK
notes: Soluble Fab-His (E. coli supernatant); converted to mAb B3
**Q.** B1 was tested. Which fold above background [1] did it give?
**A.** ≥ 6 fold

**Q.** What about the “Fab Binding” value [2] of the same binder?
**A.** 2.4e+07 relative chemiluminescence units

B2: Fab F121 (VH H115, VL L106) (Fab, V domains shown)
VH: QVQLVQSGAEVKKPGSSVKVSCKASGGTFSSYAISWVRQAPGQGLEWMGGIIPIFGTANYAQKFQGRVTITADESTSTAYMELSSLRSEDTAVYYCARGDANALYDYFDYWGQGTLVTVSS
VL: EIVLTQSPATLSLSPGERATLSCRASQSVSNWLAWYQQKPGQAPRLLIYTASNRATGIPARFSGSGSGTDFTLTISSLEPEDFAVYYCQQRYTAPWTFGQGTKVEIK
notes: Soluble Fab-His
**Q.** For B2, which fold above background [1] is on record?
**A.** ≥ 6 fold

**Q.** And the “Fab Binding” value [2]?
**A.** 1.4e+06 relative chemiluminescence units

B3: Fab F97 (VH H90, VL IFWL124) (Fab, V domains shown)
VH: QVQLVQSGAEVKKPGSSVKVSCKASGGTFSSYAISWVRQAPGQGLEWMGGIIPIFGTANYAQKFQGRVTITADESTSTAYMELSSLRSEDTAVYYCARDASTYGDLDYWGQGTLVTVSS
VL: DIQMTQSPSSLSASVGDRVTITCRASQSIDGWLNWYQQKPGKAPKLLIYAASSLQSGVPSRFSGSGSGTDFTLTISSLQPEDFATYYCQQSYSTPLTFGQGTKVEIK
notes: Soluble Fab-His; converted to mAb B18
**Q.** With B3 as the binder, how does the fold above background [1] read?
**A.** ≥ 6 fold

**Q.** And the “Fab Binding” value [2]?
**A.** 5.8e+06 relative chemiluminescence units

B4: Fab F86 (VH H80, VL L80) (Fab, V domains shown)
VH: QVQLVQSGAEVKKPGSSVKVSCKASGGTFSSYAISWVRQAPGQGLEWMGGIIPIFGTANYAQKFQGRVTITADESTSTAYMELSSLRSEDTAVYYCARPIGTGYYGFFDYWGQGTLVTVSS
VL: DIQMTQSPSSLSASVGDRVTITCRASQSIAKWLNWYQQKPGKAPKLLIYFASSLQSGVPSRFSGSGSGTDFTLTISSLQPEDFATYYCQQSYSTPLTFGQGTKVEIK
notes: Soluble Fab-His; converted to mAb B7
**Q.** For B4, which fold above background [1] is on record?
**A.** ≥ 6 fold

**Q.** And the “Fab Binding” value [2]?
**A.** 4.2e+06 relative chemiluminescence units

B5: Fab F53 (VH H2, VL L30) (Fab, V domains shown)
VH: QVQLVQSGAEVKKPGSSVKVSCKASGGTFSSYAISWVRQAPGQGLEWMGGIIPIFGTANYAQKFQGRVTITADESTSTAYMELSSLRSEDTAVYYCARDDLPLGRLDYWGQGTLVTVSS
VL: EIVLTQSPATLSLSPGERATLSCRASQSVNKHLAWYQQKPGQAPRLLIYKASNRATGIPARFSGSGSGTDFTLTISSLEPEDFAVYYCQQGIRAPYTFGQGTKVEIK
notes: Soluble Fab-His; converted to mAb B4; also called P53
**Q.** Which fold above background [1] does the source give for B5 here?
**A.** ≥ 6 fold

**Q.** What about the “Fab Binding” value [2] of the same binder?
**A.** 2.4e+06 relative chemiluminescence units

B6: Fab F104 (VH H96, VL IFWL124) (Fab, V domains shown)
VH: QVQLVQSGAEVKKPGSSVKVSCKASGGTFSSYAISWVRQAPGQGLEWMGGIIPIFGNTNYAQKFQGRVTITADESTSTAYMELSSLRSEDTAVYYCARDISGYGDLDYWGQGTLVTVSS
VL: DIQMTQSPSSLSASVGDRVTITCRASQSIDGWLNWYQQKPGKAPKLLIYAASSLQSGVPSRFSGSGSGTDFTLTISSLQPEDFATYYCQQSYSTPLTFGQGTKVEIK
notes: Soluble Fab-His; converted to mAb B14
**Q.** B6 was tested. Which fold above background [1] did it give?
**A.** ≥ 6 fold

**Q.** And the “Fab Binding” value [2]?
**A.** 5.1e+06 relative chemiluminescence units

B7: Fab F7 (VH H2, VL L6) (Fab, V domains shown)
VH: QVQLVQSGAEVKKPGSSVKVSCKASGGTFSSYAISWVRQAPGQGLEWMGGIIPIFGTANYAQKFQGRVTITADESTSTAYMELSSLRSEDTAVYYCARDDLPLGRLDYWGQGTLVTVSS
VL: EIVLTQSPATLSLSPGERATLSCRASQSVNSWLAWYQQKPGQAPRLLIYYASNRATGIPARFSGSGSGTDFTLTISSLEPEDFAVYYCQQGHRWPFTFGQGTKVEIK
notes: Soluble Fab-His
**Q.** B7 was tested. Which fold above background [1] did it give?
**A.** ≥ 6 fold

**Q.** And the “Fab Binding” value [2]?
**A.** 1.8e+06 relative chemiluminescence units

B8: Fab F32 (VH H7, VL PH9L4) (Fab, V domains shown)
VH: QVQLVQSGAEVKKPGSSVKVSCKASGGTFSSYAISWVRQAPGQGLEWMGGIIPIFGTANYAQKFQGRVTITADESTSTAYMELSSLRSEDTAVYYCARDDVALGRLDYWGQGTLVTVSS
VL: not shown
notes: Soluble Fab-His
**Q.** For B8, which fold above background [1] is on record?
**A.** ≥ 6 fold

**Q.** What about the “Fab Binding” value [2] of the same binder?
**A.** 2e+06 relative chemiluminescence units

B9: Fab F73 (VH H66, VL L67) (Fab, V domains shown)
VH: QVQLVQSGAEVKKPGSSVKVSCKASGGTFSSYAISWVRQAPGQGLEWMGGIIPIFGTANYAQKFQGRVTITADESTSTAYMELSSLRSEDTAVYYCARDLYIYGDLDYWGQGTLVTVSS
VL: DIQMTQSPSSLSASVGDRVTITCRASQSIGGWLNWYQQKPGKAPKLLIYTASSLQSGVPSRFSGSGSGTDFTLTISSLQPEDFATYYCQQSYTYPITFGQGTKVEIK
notes: Soluble Fab-His; converted to mAb B6
**Q.** How did the fold above background [1] turn out when B9 was run?
**A.** ≥ 6 fold

**Q.** And the “Fab Binding” value [2]?
**A.** 1.7e+07 relative chemiluminescence units

B10: Fab F2 (VH H2, VL L1) (Fab, V domains shown)
VH: QVQLVQSGAEVKKPGSSVKVSCKASGGTFSSYAISWVRQAPGQGLEWMGGIIPIFGTANYAQKFQGRVTITADESTSTAYMELSSLRSEDTAVYYCARDDLPLGRLDYWGQGTLVTVSS
VL: EIVLTQSPATLSLSPGERATLSCRASQSVRNFLAWYQQKPGQAPRLLIYDASNRATGIPARFSGSGSGTDFTLTISSLEPEDFAVYYCQQGYRAPITFGQGTKVEIK
notes: Soluble Fab-His
**Q.** With B10 as the binder, how does the fold above background [1] read?
**A.** ≥ 6 fold

**Q.** What about the “Fab Binding” value [2] of the same binder?
**A.** 1.5e+06 relative chemiluminescence units

B11: Fab F3 (VH H2, VL L2) (Fab, V domains shown)
VH: QVQLVQSGAEVKKPGSSVKVSCKASGGTFSSYAISWVRQAPGQGLEWMGGIIPIFGTANYAQKFQGRVTITADESTSTAYMELSSLRSEDTAVYYCARDDLPLGRLDYWGQGTLVTVSS
VL: EIVLTQSPATLSLSPGERATLSCRASQSVNNFLAWYQQKPGQAPRLLIYGASNRATGIPARFSGSGSGTDFTLTISSLEPEDFAVYYCQQFKGAPLTFGQGTKVEIK
notes: Soluble Fab-His
**Q.** B11 was tested. Which fold above background [1] did it give?
**A.** ≥ 6 fold

**Q.** And the “Fab Binding” value [2]?
**A.** 1.4e+06 relative chemiluminescence units

B12: Fab F143 (VH H148, VL H2RL12) (Fab, V domains shown)
VH: QVQLVQSGAEVKKPGSSVKVSCKASGGTFSSYAISWVRQAPGQGLEWMGGIIPIFGTANYAQKFQGRVTITADESTSTAYMELSSLRSEDTAVYYCARDFSVYGDFDYWGQGTLVTVSS
VL: DIQMTQSPSSLSASVGDRVTITCRASQSIAKWLNWYQQKPGKAPKLLIYAASSLQSGVPSRFSGSGSGTDFTLTISSLQPEDFATYYCQQSYSTPLTFGQGTKVEIK
notes: Soluble Fab-His; converted to mAb B13
**Q.** How did the fold above background [1] turn out when B12 was run?
**A.** ≥ 6 fold

**Q.** What about the “Fab Binding” value [2] of the same binder?
**A.** 4.9e+06 relative chemiluminescence units

B13: Fab F8 (VH H2, VL L7) (Fab, V domains shown)
VH: QVQLVQSGAEVKKPGSSVKVSCKASGGTFSSYAISWVRQAPGQGLEWMGGIIPIFGTANYAQKFQGRVTITADESTSTAYMELSSLRSEDTAVYYCARDDLPLGRLDYWGQGTLVTVSS
VL: EIVLTQSPATLSLSPGERATLSCRASQSVRDWLAWYQQKPGQAPRLLIYGASNRATGIPARFSGSGSGTDFTLTISSLEPEDFAVYYCQQGDGWPWTFGQGTKVEIK
notes: Soluble Fab-His
**Q.** What does the source list for B13?
**A.** fold above background [1]: ≥ 6 fold; Fab Binding [2]: 1.6e+06 relative chemiluminescence units

B14: Fab F62 (VH H54, VL GCGL18) (Fab, V domains shown)
VH: QVQLVQSGAEVKKPGSSVKVSCKASGGTFSSYAISWVRQAPGQGLEWMGGIIPIFGTANYAQKFQGRVTITADESTSTAYMELSSLRSEDTAVYYCAREDVALGRLDYWGQGTLVTVSS
VL: not shown
notes: Soluble Fab-His
**Q.** How did the fold above background [1] turn out when B14 was run?
**A.** ≥ 6 fold

**Q.** And the “Fab Binding” value [2]?
**A.** 1.6e+06 relative chemiluminescence units

B15: Fab F96 (VH H89, VL IFWL124) (Fab, V domains shown)
VH: QVQLVQSGAEVKKPGSSVKVSCKASGGTFSSYAISWVRQAPGQGLEWMGGIIPIFGTANYAQKFQGRVTITADESTSTAYMELSSLRSEDTAVYYCARDSSAYGDFDYWGQGTLVTVSS
VL: DIQMTQSPSSLSASVGDRVTITCRASQSIDGWLNWYQQKPGKAPKLLIYAASSLQSGVPSRFSGSGSGTDFTLTISSLQPEDFATYYCQQSYSTPLTFGQGTKVEIK
notes: Soluble Fab-His; converted to mAb B8
**Q.** With B15 as the binder, how does the fold above background [1] read?
**A.** ≥ 6 fold

**Q.** And the “Fab Binding” value [2]?
**A.** 5.9e+06 relative chemiluminescence units
